# Reference: PMC5440694 (Nature Communications, 2017)
# Substitutions are numbered along the chain they refer to.
# B1: wild-type C05 Fab (VVSAGW), expressed in insect cells (Fab, V domains shown)
# VH: QVQLQESGGGLVQPGESLRLSCVGSGSSFGESTLSYYAVSWVRQAPGKGLEWLSIINAGGGDIDYADSVEGRFTISRDNSKETLYLQMTNLRVEDTGVYYCAKHMSMQQVVSAGWERADLVGDAFDVWGQGTMVTVSS
# VL: DIQLTQSPSSLSASVGDRVTLTCQASQDIRKFLNWYQQKPGKGPKLLIYDASNLQRGVPSRFSGGGSGTDFTLIISSLQPEDVGTYYCQQYDGLPFTFGGGTKVVIK
# B2: C05 Fab variant VVSSGW, expressed in insect cells (Fab, V domains shown)
# VH: B1 VH with A113S
# VL: B1 VL
# B3: C05 Fab variant VTGSGW, expressed in insect cells (Fab, V domains shown)
# VH: B1 VH with V111T, S112G, A113S
# VL: B1 VL
# B4: C05 Fab variant VPGAGW displayed on yeast (Fab, V domains shown)
# VH: B1 VH with V111P, S112G
# VL: B1 VL
# B5: C05 Fab variant VVGSGW displayed on yeast (Fab, V domains shown)
# VH: B1 VH with S112G, A113S
# VL: B1 VL
# B6: C05 Fab variant WYVHLW displayed on yeast (Fab, V domains shown)
# VH: B1 VH with V110W, V111Y, S112V, A113H, G114L
# VL: B1 VL
# B7: C05 Fab variant LPGGGW displayed on yeast (Fab, V domains shown)
# VH: B1 VH with V110L, V111P, S112G, A113G
# VL: B1 VL
# B8: C05 Fab variant YDPGGW displayed on yeast (Fab, V domains shown)
# VH: B1 VH with V110Y, V111D, S112P, A113G
# VL: B1 VL
# B9: C05 Fab variant VVDSGW displayed on yeast (Fab, V domains shown)
# VH: B1 VH with S112D, A113S
# VL: B1 VL
# B10: C05 Fab variant VASAGW displayed on yeast (Fab, V domains shown)
# VH: B1 VH with V111A
# VL: B1 VL
# B11: C05 Fab variant YEPAGW displayed on yeast (Fab, V domains shown)
# VH: B1 VH with V110Y, V111E, S112P
# VL: B1 VL
# B12: C05 Fab variant LPSSGW displayed on yeast (Fab, V domains shown)
# VH: B1 VH with V110L, V111P, A113S
# VL: B1 VL
# B13: C05 Fab variant VASSGW displayed on yeast (Fab, V domains shown)
# VH: B1 VH with V111A, A113S
# VL: B1 VL
# B14: C05 Fab variant IPGSGW displayed on yeast (Fab, V domains shown)
# VH: B1 VH with V110I, V111P, S112G, A113S
# VL: B1 VL
# B15: C05 Fab variant VATSGW displayed on yeast (Fab, V domains shown)
# VH: B1 VH with V111A, S112T, A113S
# VL: B1 VL
# B16: C05 Fab variant WPEIGF displayed on yeast (Fab, V domains shown)
# VH: B1 VH with V110W, V111P, S112E, A113I, W115F
# VL: B1 VL
# B17: C05 Fab variant VVDAGW, in supernatant of transfected 293T cells (Fab, V domains shown)
# VH: B1 VH with S112D
# VL: B1 VL
# B18: C05 Fab variant VVEAGW, in supernatant of transfected 293T cells (Fab, V domains shown)
# VH: B1 VH with S112E
# VL: B1 VL
# B19: C05 Fab variant VEEAGW, in supernatant of transfected 293T cells (Fab, V domains shown)
# VH: B1 VH with V111E, S112E
# VL: B1 VL
# notes: not shown: His6, C-terminal, kept
# B20: C05 Fab variant VVDSGW, in supernatant of transfected 293T cells (Fab, V domains shown)
# VH: B1 VH with S112D, A113S
# VL: B1 VL
# notes: as for B19
# Molecular target: T1, biotinylated HA0 ectodomain of A/Perth/16/2009 (H3N2) (Influenza A virus A/Perth/16/2009 (H3N2), UniProt C6KNH7, strain, biotin on the BirA biotinylation site)
# Experiment: BLI
# Conditions: both partners purified
row,Binder,Kd
1,B1,23.4 ± 0.1 nM
2,B2,43.7 ± 0.5 nM
3,B3,125.1 ± 1.2 nM

# Molecular target: biotinylated HA0 ectodomain of A/New Caledonia/20/1999 (H1N1) (Influenza A virus A/New …, UniProt Q6WG00, strain, biotin on the BirA biotinylation site)
# Experiment: BLI
# Conditions: both partners purified
row,Binder,Kd
1,B1,6.3 ± 0.1 nM
2,B2,2.9 ± 0.1 nM
3,B3,1.1 ± 0.2 nM

# Molecular target: biotinylated HA0 ectodomain of A/Beijing/262/1995 (H1N1) (Influenza A virus A/Beijing/262/1995 …, UniProt Q6WG01, strain, biotin on the BirA biotinylation site)
# Experiment: BLI
# Conditions: both partners purified
row,Binder,Kd
1,B1,23.1 ± 0.6 nM
2,B2,259 ± 2.8 nM
3,B3,182.3 ± 0.5 nM

# Molecular target: T2, biotinylated HA0 ectodomain of A/Solomon Islands/3/2006 (H1N1) (Influenza A virus A/Solomon …, UniProt A7Y8I1, strain, biotin on the BirA biotinylation site)
# Experiment: BLI
# Conditions: both partners purified
row,Binder,Kd
1,B1,91.4 ± 0.9 nM
2,B2,4.6 ± 0.6 nM
3,B3,116 ± 1.9 nM

# Molecular target: biotinylated HA0 ectodomain of A/Panama/2007/1999 (H3N2) (Influenza A virus A/Panama/2007/1999 …, UniProt Q1K9M3, strain, biotin on the BirA biotinylation site)
# Experiment: BLI
# Conditions: both partners purified
row,Binder,Kd
1,B1,926 ± 12.1 nM
2,B2,1290 ± 71 nM
3,B3,4340 ± 207 nM

# Molecular target: T1, biotinylated HA0 ectodomain of …
# Experiment: yeast display selection (FACS) with next-generation sequencing
# Conditions: one partner purified
row,Binder,binding result
1,B4,binds
2,B5,binds
3,B6,binds
4,B7,binds
5,B8,binds
6,B9,binds
7,B10,binds
8,B11,binds

# Molecular target: T2, biotinylated HA0 ectodomain of …
# Experiment: as above
# Conditions: one partner purified
row,Binder,binding result
1,B12,binds
2,B4,binds
3,B13,binds
4,B14,binds
5,B15,binds
6,B5,binds
7,B16,binds

# Molecular target: T1, biotinylated HA0 ectodomain of …
# Experiment: BLI
# Conditions: one partner purified
row,Binder,binding result
1,B17,binds
2,B18,binds
3,B19,binds
4,B20,binds
